Test results reported in patent US20200216522A1 (DENALI THERAPEUTICS, published 2020).
Square brackets hold non-standard residues; d marks the D form. * marks the point of attachment. Biotin = O=C1N[C@H]2[C@H](CS[C@H]2CCCCC(=O)*)N1; pS = N[C@@H](COP(=O)(O)O)C(=O)O

T1: Peptide_022 (human)
T1 peptide: AGIGDTPSLEDEAAG

T2: Peptide_032 (human)
T2 peptide: GAAPPGQKGQANATR

T3: Tau 186-205 peptide (17G2.A1 peptide) (human, N-terminal biotin)
T3 peptide: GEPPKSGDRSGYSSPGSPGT

T4: Tau 251-270 peptide phosphorylated at both Ser258 and Ser262 (human, N-terminal biotin; C-terminal amide; phosphoserine at 258 and 262 (numbering of SEQ ID NO:1))
T4 construct: also called pSer258 and pSer262 peptide
T4 peptide: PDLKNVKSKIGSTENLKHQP

T5: Tau 346-360 peptide phosphorylated at Ser352 (human, SMILES …)
T5 construct: also called pSer352
T5 peptide: Biotin-FKDRVQ[pS]KIGSLDNI-NH2

T6: Tau 346-360 peptide phosphorylated at Ser356 (human, SMILES …)
T6 construct: also called pSer356
T6 peptide: Biotin-FKDRVQSKIG[pS]LDNI-NH2

B1: chimeric IgG clone 1A5 (antibody, V domains shown)
VH: EVQLQQSGAELVRPGASVKLSCTASGFNIKDSLIHWVKQRPEQGLEWIGWIDPEDGETKYAPKFQDKATKTADTSSNTAYLQLSSLTSEDTAIYYCASGEWDYWGQGTSVTVSS
VL: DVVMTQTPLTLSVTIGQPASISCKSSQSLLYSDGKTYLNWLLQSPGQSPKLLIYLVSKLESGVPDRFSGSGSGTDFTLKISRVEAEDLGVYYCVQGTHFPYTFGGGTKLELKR
notes: mouse-human chimeric IgG from HEK293
B2: murine anti-Tau hybridoma antibody 17G2.A1 (antibody, V domains shown)
VH: QVQLQQPGAELVGPGSSVKLSCKASGYTFINYWIDWMKQSPGQGLEWIGNIYPSDSESHYNQKFTDKATLTVDISSSTAYLQLSSLTSEDSAVYYCALYSKGYWGQGTSVTVSS
VL: DVLMTQTPLSLPVTLGDQASISCRSSQNIVHTNGNTYLEWYLQKPGQSPKLLIYKLSSRFSGVPDRFSGSGSGTDFTLKISRVEAEDLGVYYCFQGSHLPFTFGGGTKLEIKR
notes: mouse IgG from hybridoma; also called anti-Tau 17G2.A1
B3: chimeric IgG clone 1A1 (antibody, V domains shown)
VH: EVQLQQSGAELVRPGASVRLSCTASGFNIKDSLMHWLKQRPEQGLEWIGWIDPEDGETKYAPKFQDKATITADTSSNTAYLQLSSLTSEDTAIYYCTRRDWEGPWGQGTLVTVSA
VL: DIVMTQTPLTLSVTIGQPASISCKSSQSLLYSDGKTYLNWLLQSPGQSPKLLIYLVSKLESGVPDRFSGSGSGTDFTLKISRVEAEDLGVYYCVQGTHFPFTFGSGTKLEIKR
notes: mouse-human chimeric IgG from HEK293; also called anti-Tau 1A1; anti-Tau^1A1
B4: chimeric IgG clone 1G7 (antibody, V domains shown)
VH: EVQLQQSGAEVVRPGASVKLSCTTSGFNIKDSLMHWLKQRPEQGLEWIGWIDPEDGETKYAPKFQDKATITADTSSNTAYLQLSSLTSGDTAIYYCARRDWEGPWGQGTLVTVSA
VL: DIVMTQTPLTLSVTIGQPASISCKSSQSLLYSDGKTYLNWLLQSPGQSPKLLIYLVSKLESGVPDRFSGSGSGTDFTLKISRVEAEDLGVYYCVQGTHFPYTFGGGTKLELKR
notes: as for B1
B5: chimeric IgG clone 1D10 (antibody, V domains shown)
VH: EVQLQQSGAELVRPGASVKLSCTASGFNIKDSLMHWMKQRPEQGLEWIGWIDPEDGETKYAPKFQDKATLTADTSSNAAYLQLSSLTSEDTAIYYCVRGDWDGGYWGQGTTLTVSS
VL: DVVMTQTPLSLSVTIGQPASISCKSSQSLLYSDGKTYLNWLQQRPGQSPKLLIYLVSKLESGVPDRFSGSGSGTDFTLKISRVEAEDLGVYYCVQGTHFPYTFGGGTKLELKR
notes: as for B1

Assays:
Peptide_022 = biological target: T1, Peptide_022; assay: peptide array
Summary of the method: (§1)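 Overlapping 15-mer peptides (5-aa offset) spanning human 2N4R Tau spotted in triplicate on slides; antibodies bound 2 h at room temperature in 3% BSA-TBST (chimeric IgG 5 μg/mL; mouse IgG 30 μg/mL). Detection 1 h with fluorescent anti-human (568 nm) or anti-mouse (647 nm) secondary; fluorescence imaging aligned to array map.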

Peptide_032 = biological target: T2, Peptide_032; assay: peptide array
Summary of the method: as §1

[1] = biological target: T7, full-length human Tau (Tau441; 2N4R), recombinant (human, UniProt P10636 1-758); assay: SPR Biacore, IgG captured, r-Tau injected
T7 construct: made in E. coli, His6-Smt3 tag removed; biotinylated through amines for Octet and phage work; also called r-Tau; recombinant Tau
T7 sequence (P10636 other isoform, or with tags, fused parts or gaps limits assumed): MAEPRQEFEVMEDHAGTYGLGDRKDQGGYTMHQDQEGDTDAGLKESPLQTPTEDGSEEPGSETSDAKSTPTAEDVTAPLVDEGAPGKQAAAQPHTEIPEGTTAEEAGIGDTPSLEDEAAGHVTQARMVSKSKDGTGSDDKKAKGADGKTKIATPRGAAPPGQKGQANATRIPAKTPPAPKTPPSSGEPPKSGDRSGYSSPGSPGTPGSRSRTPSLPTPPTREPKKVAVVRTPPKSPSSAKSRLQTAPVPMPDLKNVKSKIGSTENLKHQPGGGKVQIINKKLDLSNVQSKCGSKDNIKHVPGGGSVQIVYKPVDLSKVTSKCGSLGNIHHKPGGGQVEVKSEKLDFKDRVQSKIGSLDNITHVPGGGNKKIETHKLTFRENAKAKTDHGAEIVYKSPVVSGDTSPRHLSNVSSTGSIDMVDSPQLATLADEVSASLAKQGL
Method: The affinity of chimeric IgG antibodies 1C7, 1A1, 1A5, 1D10, and 1G7 for recombinant Tau was determined by surface plasmon resonance using a Biacore™ T200 instrument. Biacore™ Series S CM5 sensor chips were immobilized with monoclonal mouse anti-human IgG (Fc) antibody (human antibody capture kit from GE Healthcare). 1 μg/mL of antibody was captured for 1 minute on each flow cell and serial 3-fold dilutions of recombinant Tau were injected at a flow rate of […]. Each sample was analyzed with a 3-minute association and a 10-minute dissociation. After each injection the chip was regenerated using 3M MgCl₂. Binding response was corrected by subtracting the RU from a flow cell capturing an irrelevant IgG at similar density. A 1:1 Languir model of simultaneous fitting of kₒₙ and koff was used for kinetics analysis.

cynomolgus monkey Tau = biological target: T8, cynomolgus monkey Tau (cynomolgus monkey, UniProt P57786 2-459 (rhesus entry)); assay: ELISA, hybridoma antibody
T8 construct: also called cyno Tau; cyno-Tau
T8 sequence (P57786 other isoform, or with tags, fused parts or gaps limits assumed): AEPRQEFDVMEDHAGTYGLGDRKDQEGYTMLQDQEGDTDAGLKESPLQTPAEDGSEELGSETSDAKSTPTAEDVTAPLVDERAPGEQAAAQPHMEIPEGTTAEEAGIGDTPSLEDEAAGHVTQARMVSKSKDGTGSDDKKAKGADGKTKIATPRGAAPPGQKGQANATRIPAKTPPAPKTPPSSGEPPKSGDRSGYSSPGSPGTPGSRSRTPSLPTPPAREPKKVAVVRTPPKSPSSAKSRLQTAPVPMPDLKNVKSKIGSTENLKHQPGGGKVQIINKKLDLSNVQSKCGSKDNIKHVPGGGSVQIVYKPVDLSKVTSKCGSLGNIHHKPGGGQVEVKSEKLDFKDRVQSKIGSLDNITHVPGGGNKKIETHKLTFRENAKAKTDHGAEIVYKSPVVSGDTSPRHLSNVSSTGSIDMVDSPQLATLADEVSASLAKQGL
Method: Primary screening was performed by coating 96-well ELISA Nunc plates overnight at 4° C. with 1 μg/mL r-Tau in PBS. The plates were washed three times with PBST using a Biotek plate washer. 50 µL/well of hybridoma supernatants were added to the plates with incubation at room temperature for 1 hour. Plates were washed three times with PBST. A secondary detection antibody goat X m HRP (Southern Biotech) at 1:2000 dilution, 50 μL/well was added to the plate and incubated for 1 hour at room temperature. At the end of an hour, plates were washed three time with PBST. Plates were developed with 50 μL/well of TMB substrate (Thermo Fisher) and quenched with 50 μL/well of 1N sulfuric acid. The signal was quantified on a BioTek® plate reader at A450. Wells with an OD three times the background for r-Tau were considered positive and carried forward for secondary screening.
Positives from primary screening were carried forward into the secondary screening where they were screened by ELISA using the above protocol on r-Tau, p-Tau, and cyno-Tau for binding and cross-reactivity. Further characterization on the five different Tau isoforms was performed by the same method.

[2] = biological target: T3, Tau 186-205 peptide (17G2.A1 peptide); assay: direct ELISA on biotinylated peptide
Method: The peptides were diluted in 3% BSA/TBST in 0.5 log dilutions starting at 1 μg/mL and bound to neutravidin coated plates. Plates were washed 5× with TBST between all steps. 17G2.A1 was diluted to 5 μg/mL in 3% BSA/TBST and incubated for 1 hour at room temperature, followed by incubation with anti-mouse IgG-HRP (Novex) diluted 1/5000 in BSA/TBST for 45 minutes at room temperature. ELISAs were developed with 50 μL of 1-step TMB Ultra.

[3] = biological target: T4, Tau 251-270 peptide phosphorylated at …; assay: ELISA on biotinylated peptide
Method: (§2) Peptides corresponding to original binding sites on the microarray were synthesized and included all permutations of phospho-serine epitopes. Peptides were synthesized with a biotinylated N-terminus and C-terminal amide. Peptides were purified and confirmed by mass spectrometry. Peptides were then bound to streptavidin-coated plates in half serial dilutions from 250 ng/well of each peptide. Antibody binding was tested at 1 μg/mL in 5% BSA TBST, followed by washing and detection with goat anti-human HRP (as described above in the “Chimeric IgG ELISA” section).

[4] = biological target: T5, Tau 346-360 peptide phosphorylated at …; assay: ELISA on biotinylated peptide
Method: as §2

[5] = biological target: T6, Tau 346-360 peptide phosphorylated at …; assay: ELISA on biotinylated peptide
Method: as §2

| Binder | binding result (Peptide_022) | binding result (Peptide_032) | Kd [1] [nM] | binding result (cynomolgus monkey Tau) | binding result [2] | binding result [3] | binding result [4] | binding result [5] |
| --- | --- | --- | --- | --- | --- | --- | --- | --- |
| B1 | no binding (tested: 5 ug/mL) | no binding (tested: 5 ug/mL) | 0.2 | – | – | – | – | – |
| B2 | no binding (tested: 30 ug/mL) | no binding (tested: 30 ug/mL) | – | binds | binds | – | – | – |
| B3 | no binding (tested: 5 ug/mL) | no binding (tested: 5 ug/mL) | 0.02 | – | – | binds | binds | binds |
| B4 | no binding (tested: 5 ug/mL) | no binding (tested: 5 ug/mL) | 0.1 | – | – | – | binds | – |
| B5 | no binding (tested: 5 ug/mL) | no binding (tested: 5 ug/mL) | 0.2 | – | – | – | – | – |
